Data reported in patent US20220340685A1, “COMBINATION THERAPY WITH ENTPD2 AND CD73 ANTIBODIES” (Novartis AG, priority 2019, published 2022).

Key:
[1] = target: T1, recombinant human ENTPD2 (residues 29-462) (Homo sapiens, UniProt Q9Y5L3); assay: Biochemical human ENTPD2 functional assay (Transcreener ADP2 TR-FRET)
T1 construct: residues 29-462 of human or cyno ENTPD2; GP67 signal peptide (N); made in house; host or cells: High Five (Trichoplusia ni) insect cells, baculovirus
T1 sequence (Q9Y5L3 29-462): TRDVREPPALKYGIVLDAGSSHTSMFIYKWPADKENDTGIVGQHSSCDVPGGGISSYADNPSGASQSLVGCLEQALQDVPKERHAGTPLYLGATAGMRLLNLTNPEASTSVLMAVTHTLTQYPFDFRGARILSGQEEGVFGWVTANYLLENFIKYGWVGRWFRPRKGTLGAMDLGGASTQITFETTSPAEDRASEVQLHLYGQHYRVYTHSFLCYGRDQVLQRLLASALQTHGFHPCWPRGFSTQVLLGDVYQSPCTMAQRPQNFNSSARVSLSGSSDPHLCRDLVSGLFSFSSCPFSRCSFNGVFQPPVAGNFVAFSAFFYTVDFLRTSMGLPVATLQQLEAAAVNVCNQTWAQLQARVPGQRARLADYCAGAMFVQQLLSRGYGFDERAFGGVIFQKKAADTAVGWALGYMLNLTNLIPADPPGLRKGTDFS
Description: Biochemical and cell-based functional assays were developed in-house to understand functional impact of anti-ENTPD2 Abs against purified extracellular domain of ENTPD2 (residues 29-462), as well as against the fully intact protein in the context of the native cell-based conformation. ENTPD2 hydrolyzes ATP to ADP, which can subsequently be detected using the HTRF Transcreener ADP2 TR-FRET Red Assay (BellBrook Labs, Madison, Wis.) where ENTPD2-produced ADP would compete with the ADP Tracer for binding to the anti-ADP-Tb antibody. The resulting signal is inversely proportional to the concentration of ADP in the sample. […]
HTRF signal (Emission at 620 nm and 665 nm) was assessed in both assays using the Envision plate reader in HTRF mode (Perkin Elmer, Waltham, Mass.). HTRF ratio was determined using the following formula: HTRF ratio=R=Emission at 665 nm/Emission at 620 nm×10,000. Subsequently % Residual Activity and % Inhibition were determined as follows:
Where R0% is the HTRF ratio of the negative control (0% enzyme activity), and R100% is the HTRF ratio of the positive control (100% enzyme activity). Data were analyzed in Microsoft Excel and graphed using GraphPad's Prism 7.0 software and IC50 values were obtained using non-linear regression, log (agonist) vs. response-variable slope (four parameters) analysis.

ENTPD2 = target: T2, ENTPD2 (Homo sapiens, UniProt Q9Y5L3); assay: Cell-based screen of hybridoma-derived mAbs for inhibition of ATP hydrolysis by ENTPD2
T2 sequence (Q9Y5L3 1-495): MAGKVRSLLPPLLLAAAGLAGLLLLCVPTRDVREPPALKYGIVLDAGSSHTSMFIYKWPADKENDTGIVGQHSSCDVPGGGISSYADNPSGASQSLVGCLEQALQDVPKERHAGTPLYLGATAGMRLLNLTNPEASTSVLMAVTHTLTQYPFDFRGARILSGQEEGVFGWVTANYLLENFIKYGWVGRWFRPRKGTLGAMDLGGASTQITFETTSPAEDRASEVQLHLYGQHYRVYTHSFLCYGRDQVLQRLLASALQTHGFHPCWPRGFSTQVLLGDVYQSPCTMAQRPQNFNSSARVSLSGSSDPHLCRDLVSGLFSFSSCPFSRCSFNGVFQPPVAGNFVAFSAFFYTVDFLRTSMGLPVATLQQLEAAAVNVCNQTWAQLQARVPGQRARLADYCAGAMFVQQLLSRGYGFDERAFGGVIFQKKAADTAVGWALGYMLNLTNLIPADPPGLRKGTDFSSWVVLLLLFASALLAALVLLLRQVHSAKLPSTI
Description: Hybridoma-derived mAbs were screened in a cell-based assay for inhibition of ATP hydrolysis by ENTPD2.

B1: mAb17: hybridoma-derived anti-human ENTPD2 lead inhibitory mAb (chimeric); VH/VL DNA SEQ ID NO: 234/238 (antibody, V domains shown)
VH: EVQLQQFGAELVKPGASVKISCKASGYTFTDYNMDWVKQSHGKSLEWIGDINPKYDISTYNQQFKGKATLTVDKSSSTAYMELRSLTSEDTAVYYCARRGFFLYYGINYYYFDVWGAGTTVTVSS
VL: QIVLTQSPAIMSASLGEEITLTCSASSSVSYIHWYQQKSGTSPTLLIYSTSNLASGVPSRFSGSGSGTFYSLTISSVEAEDAADYYCHQWSSYPWTFGGGTKLEIK
modifications: constant regions not cited
In the case of B1, the “inhibition of the catalytic activity of recombinant human ENTPD2” value [1] is reported as “potently inhibit” and the “inhibition of ATP hydrolysis by ENTPD2 (screen outcome)” value (ENTPD2) is reported as “lead inhibitory mAbs”.
